The values below come from publication PMC8144572.

This assay has as its target truncated NpSRII/NpHtrII137 complex (Natronomonas pharaonis) (UniProt P42196). The assay is described as follows: SAXS; detergent-solubilised (DDM) complex, peak fractions after gel filtration; low salt (150 mM NaCl); 0.57 mg/ml full-length and 0.78 mg/ml truncated complex; BM29 (ESRF); curves fitted with atomistic dimer models with a detergent belt (MEMPROT, CRYSOL3). A general note: Size exclusion chromatography separates by hydrodynamic size, large species first.

By stoichiometry N is commonly meant the number of molecules, sites or subunits per partner or assembly.

Sequence of truncated NpSRII/NpHtrII137 complex (P42196 whole entry, the tested form may be a part): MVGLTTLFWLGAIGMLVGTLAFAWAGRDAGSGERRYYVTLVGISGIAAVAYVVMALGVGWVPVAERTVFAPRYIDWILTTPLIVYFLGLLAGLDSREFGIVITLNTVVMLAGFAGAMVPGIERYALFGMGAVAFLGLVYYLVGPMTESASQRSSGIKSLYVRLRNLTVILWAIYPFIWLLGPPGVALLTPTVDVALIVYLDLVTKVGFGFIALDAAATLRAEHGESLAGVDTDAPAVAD
Sequence of truncated NpSRII/NpHtrII137 complex (P42259 1-136): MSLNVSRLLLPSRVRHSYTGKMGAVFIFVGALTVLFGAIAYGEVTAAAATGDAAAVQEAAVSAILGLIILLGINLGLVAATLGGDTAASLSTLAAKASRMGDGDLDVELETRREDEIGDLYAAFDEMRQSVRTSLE

In the case of “truncated NpSRII/NpHtrII137 complex (from UniProt P42196 1-239; P42259 1-136)”, the stoichiometry N came to 2.
